Data as given in article PMC3830488, “WRKY76 is a rice transcriptional repressor playing opposite roles in blast disease resistance and cold stress tolerance”.

T1: MBP-OsWRKY76 (Oryza sativa (rice), UniProt Q6EPZ2 1-327)
T1 sequence: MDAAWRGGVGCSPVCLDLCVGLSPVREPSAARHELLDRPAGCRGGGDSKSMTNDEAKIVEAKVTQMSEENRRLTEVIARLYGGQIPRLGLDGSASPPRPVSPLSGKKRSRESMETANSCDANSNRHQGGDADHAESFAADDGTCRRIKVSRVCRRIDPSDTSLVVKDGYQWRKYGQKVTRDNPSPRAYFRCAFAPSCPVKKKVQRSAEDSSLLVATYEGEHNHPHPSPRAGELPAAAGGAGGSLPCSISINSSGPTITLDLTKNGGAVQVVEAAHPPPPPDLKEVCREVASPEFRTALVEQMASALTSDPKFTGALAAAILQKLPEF


Experiments:
[1] = biological target: T1, MBP-OsWRKY76; experiment: EMSA; DIG Gel Shift Kit 2nd generation (Roche); buffer, salt, pH and temperature not stated; details: protein: recombinant; tags: MBP (N-terminal, pMALc2x); label: DIG
[2] = biological target: T1, MBP-OsWRKY76; experiment: competition; excess unlabelled WB vs DIG-WB; DIG Gel Shift Kit 2nd generation (Roche); buffer, salt, pH and temperature not stated; details: protein: recombinant; tags: MBP (N-terminal, pMALc2x)
[3] = biological target: T1, MBP-OsWRKY76; experiment: competition; excess unlabelled mWB vs DIG-WB; DIG Gel Shift Kit 2nd generation (Roche); buffer, salt, pH and temperature not stated; details: protein: recombinant; tags: MBP (N-terminal, pMALc2x)

| Binder | binding result [1] | further results |
| --- | --- | --- |
| WB (W-box probe) (dsDNA) DNA 1: AACTTTGACCAATCTTTCAAGTA DNA 2: TACTTGAAAGATTGGTCAAAGTT | binds | – |
| WB unlabelled competitor (dsDNA) DNA 1: AACTTTGACCAATCTTTCAAGTA DNA 2: TACTTGAAAGATTGGTCAAAGTT | – | binding result [2]: binds |
| mWB unlabelled competitor (dsDNA) DNA 1: AACTTTGAACAATCTTTCAAGTA DNA 2: TACTTGAAAGATTGTTCAAAGTT | – | binding result [3]: no binding |
| mWB (mutated W-box probe) (dsDNA) DNA 1: AACTTTGAACAATCTTTCAAGTA DNA 2: TACTTGAAAGATTGTTCAAAGTT | no binding | – |
